B1: NI-308.28G1 (antibody, V domains shown)
VH: QVQLQESGPRLVKPSETLSLTCTVAGGSVNSYYWTWIQQSPGKGLEWLGRIYIAGRTNYNPSLTSRIALSVDTSRNQLSLKLTSVTAADTAIYYCARWGAESGDYYYGVDVWGPGTLVTVSS
VL: EIVMTQSPLSLPVTPGEPASISCKSSEGLLHSNGYTYLDWYLQKPGQAPQLLIFLASNRAAGVPDRFSGSGSGTDFTLKISRVEAEDVGVYYCMQAIQSPWTFGPGTKVEIK
notes: Recombinant complete human IgG1, kappa
B2: NI-308.18F7 (antibody, V domains shown)
VH: QVQLQESGPGLVKPSETLSVTCTVSGGSINDYYWNWIRQPAGKGLEWIGRIYASGTINYNPSLQSRVTMSIDTSKNQFSLDLISVSAADTAVYYCARWGQVVGDYYYGMDVWGQGTTVTVSS
VL: EIVLTQSPLSLSVTPGEPASISCKSSQSLQHTNGYNYLDWYLLKPGQSPQLLIFLTSNRASGVPDRFSGSGSGTNFTLKISRVEAEDVGVYYCMEGIQLWTFGQGTKLEIK
notes: as for B1

Experiments:
Tau = Tau (UniProt P10636-8 1-441, limits assumed); assay: indirect ELISA, coated protein
Protocol: (§1) 96-well microplates (Corning) were coated with different target proteins at a concentration of 1-10 μg/ml in coating buffer (15 mM Na₂CO₃, 35 mM NaHCO₃, pH 9.42). Non-specific binding sites were blocked for 1 h at RT with PBS/0.1% Tween®-20 containing 2% BSA (Sigma-Aldrich, Buchs, Switzerland). […] Binding was determined using donkey anti-human IgG Fcγ-specific antibody conjugated with HRP (Jackson ImmunoResearch Laboratories, Inc., West Grove, USA) followed by measurement of HRP activity in a standard colorimetric assay. Signals for target protein were calculated in fold increase above median.

transthyrethin = transthyrethin (UniProt P02766 21-147); assay: indirect ELISA, coated protein
Protocol: as §1

[1] = target: T1, transactive response DNA binding protein 43 (UniProt Q13148 1-414, limits assumed); assay: indirect ELISA, coated protein
T1 construct: also called TDP-43
Protocol: as §1

[2] = target: T2, full-length amyloid precursor protein (UniProt P05067 18-770, limits assumed); assay: indirect ELISA, coated protein
T2 construct: also called flAPP
Protocol: as §1

(PR)15: H-C(PR)15-OH = target: T3, (PR)15: H-C(PR)15-OH; assay: indirect ELISA, coated peptide
T3 construct: synthetic, not coupled to BSA; also called poly-PR DPR protein peptide
T3 peptide: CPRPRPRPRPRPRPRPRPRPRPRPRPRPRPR
Protocol: (§2) In brief, dipeptide repeat proteins were synthesized and purified by Schafer-N(Copenhagen, Denmark): (GA)₁₅: H-CHHHHHH(GA)₁₅-OH; (GP)₁₅: H-C(GP)₁₅-OH; (GR)₁₅: H-C(GR)₁₅-OH; (PA)₁₅: H-C(PA)₁₅-OH; (PR)₁₅: H—C(PR)₁₅-OH. 96-well microplates (Corning Incorporated, Corning, USA) were coated with dipeptide repeat protein peptides at a concentration of either 5 μg/ml or 20 μg/ml in coating buffer (15 mM Na₂CO₃, 35 mM NaHCO₃, pH 9.42). Non-specific binding sites were blocked for 1 h at room temperature with PBS/0.1% Tween®-20 containing 2% BSA (Sigma-Aldrich, Buchs, Switzerland). Primary antibodies were diluted to the indicated concentrations and incubated for 1 h at room temperature, followed by incubation with a donkey anti-human IgG Fcγ-specific antibody conjugated with HRP (Jackson ImmunoResearch Laboratories, Inc., West Grove, USA). Binding was determined by measurement of HRP activity in a standard colorimetric assay. EC₅₀ values were estimated by non-linear regression using GraphPad Prism software (San Diego, USA). The binding specificity and EC₅₀ of human-derived antibodies for C9orf72 dipeptide repeat protein peptides (GA)₁₅, (GP)₁₅, (GR)₁₅, (PA)₁₅ and (PR)₁₅ were determined by indirect ELISA.

(GP)15: H-C(GP)15-OH = target: T4, (GP)15: H-C(GP)15-OH; assay: indirect ELISA, coated peptide
T4 construct: synthetic, not coupled to BSA; also called poly-GP DPR protein peptide
T4 peptide: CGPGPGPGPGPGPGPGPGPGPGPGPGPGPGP
Protocol: as §2

(PA)15: H-C(PA)15-OH = target: T5, (PA)15: H-C(PA)15-OH; assay: indirect ELISA, coated peptide
T5 construct: synthetic, not coupled to BSA; also called poly-PA DPR protein peptide
T5 peptide: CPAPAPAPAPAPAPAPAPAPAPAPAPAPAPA
Protocol: as §2

(GR)15: H-C(GR)15-OH = target: T6, (GR)15: H-C(GR)15-OH; assay: indirect ELISA, coated peptide
T6 construct: synthetic, not coupled to BSA; also called poly-GR DPR protein peptide
T6 peptide: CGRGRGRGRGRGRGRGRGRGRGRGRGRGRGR
Protocol: as §2

GA10: H-(GA)10HHHHHH-NH2 = target: T7, GA10: H-(GA)10HHHHHH-NH2 (C-terminal amide); assay: indirect ELISA, coated His-tagged peptide
T7 peptide: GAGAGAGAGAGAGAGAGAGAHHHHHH
Text: (§3) In brief, dipeptide repeat proteins were synthesized and purified by Schafer-N (Copenhagen, Denmark): GA₂₀: H-(GA)₂₀HHHHHH-NH₂; GA₁₀: H-(GA)₁₀HHHHHH-NH₂; GA₆: H-(GA)₆HHHHHH-NH₂; GA₅: H-(GA)₅HHHHHH-NH₂; GA₄: H-(GA)₄HHHHHH-NH₂; GA₃: H-(GA)₃HHHHHH-NH₂; GA₂: H-(GA)₂HHHHHH-NH₂; GP₂₀: H-(GP)₂₀HHHHHH-NH₂; GP₁₀: H-(GP)₁₀HHHHHH-NH₂; GP₆: H-(GP)₆HHHHHH-NH₂; GP₅: H-(GP)₅HHHHHH-NH₂; GP₄: H-(GP)₄HHHHHH-NH₂; GP₃: H-(GP)₃HHHHHH-NH₂; GP₂: H-(GP)₂HHHHHH-NH₂. GR₂₀: H-(GR)₂₀HHHHHH-NH₂; GR₁₀: H-(GR)₁₀HHHHHH-NH₂; GR₆: H-(GR)₆HHHHHH-NH₂; GR₅: H-(GR)₅HHHHHH-NH₂; GR₄: H-(GR)₄HHHHHH-NH₂; GR₃: H-(GR)₃HHHHHH-NH₂; GR₂: H-(GR)₂HHHHHH-NH₂; PA₂₀: H-(PA)₂₀HHHHHH-NH₂; PA₁₀: H-(PA)₁₀HHHHHH-NH₂; PA₆: H-(PA)₆HHHHHH-NH₂; PA₅: H-(PA)₅HHHHHH-NH₂; PA₄: H-(PA)₄HHHHHH-NH₂; PA₃: H-(PA)₃HHHHHH-NH₂; PA₂: H-(PA)₂HHHHHH-NH₂; PR₂₀: H-(PR)₂₀HHHHHH-NH₂; PR₁₀: H-(PR)₁₀HHHHHH-NH₂; PR₆: H-(PR)₆HHHHHH-NH₂; PR₅: H-(PR)₅HHHHHH-NH₂; PR₄: H-(PR)₄HHHHHH-NH₂; PR₃: H-(PR)₃HHHHHH-NH₂; PR₂: H-(PR)₂HHHHHH-NH₂. 96-well microplates (Corning Incorporated, Corning, USA) were coated with dipeptide repeat protein peptides at a concentration of 50 μg/ml in coating buffer (15 mM Na₂CO₃, 35 mM NaHCO₃, pH 9.42). Non-specific binding sites were blocked for 1 h at room temperature with PBS/0.1% Tween®-20 containing 2% BSA (Sigma-Aldrich, Buchs, Switzerland). Primary antibodies were diluted to the indicated concentrations and incubated 1 h at room temperature, followed by incubation with a donkey anti-human IgG Fcγ-specific antibody conjugated with HRP (Jackson ImmunoResearch Laboratories, Inc., West Grove, USA). Binding was determined by measurement of HRP activity in a standard colorimetric assay. EC₅₀ values were estimated by non-linear regression using GraphPad Prism software (San Diego, USA).

GA20: H-(GA)20HHHHHH-NH2 = target: T8, GA20: H-(GA)20HHHHHH-NH2 (C-terminal amide); assay: indirect ELISA, coated His-tagged peptide
T8 peptide: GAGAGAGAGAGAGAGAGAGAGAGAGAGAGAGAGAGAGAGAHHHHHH
Text: as §3

[3] = target: T9, (GA)15: H-CHHHHHH(GA)15-OH; assay: indirect ELISA, coated uncoupled peptide
T9 construct: synthetic, not coupled to BSA; also called poly-GA DPR protein peptide
T9 peptide: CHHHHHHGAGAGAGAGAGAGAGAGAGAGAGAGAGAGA
Protocol: as §2

Tau, sequence (P10636 other isoform, or with tags, fused parts or gaps limits assumed): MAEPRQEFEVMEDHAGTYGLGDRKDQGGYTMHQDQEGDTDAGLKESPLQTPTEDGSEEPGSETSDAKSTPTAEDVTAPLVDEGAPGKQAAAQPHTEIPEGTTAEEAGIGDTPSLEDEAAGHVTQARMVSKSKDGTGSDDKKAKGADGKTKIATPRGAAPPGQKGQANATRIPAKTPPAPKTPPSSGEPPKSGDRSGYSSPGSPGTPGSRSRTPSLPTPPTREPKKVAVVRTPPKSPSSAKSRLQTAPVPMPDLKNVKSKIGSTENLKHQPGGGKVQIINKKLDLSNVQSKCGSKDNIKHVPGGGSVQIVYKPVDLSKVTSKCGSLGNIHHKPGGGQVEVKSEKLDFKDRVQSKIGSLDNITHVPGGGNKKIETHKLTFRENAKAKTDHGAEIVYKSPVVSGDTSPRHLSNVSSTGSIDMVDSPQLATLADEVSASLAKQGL
T2 sequence (P05067 18-770 limits assumed): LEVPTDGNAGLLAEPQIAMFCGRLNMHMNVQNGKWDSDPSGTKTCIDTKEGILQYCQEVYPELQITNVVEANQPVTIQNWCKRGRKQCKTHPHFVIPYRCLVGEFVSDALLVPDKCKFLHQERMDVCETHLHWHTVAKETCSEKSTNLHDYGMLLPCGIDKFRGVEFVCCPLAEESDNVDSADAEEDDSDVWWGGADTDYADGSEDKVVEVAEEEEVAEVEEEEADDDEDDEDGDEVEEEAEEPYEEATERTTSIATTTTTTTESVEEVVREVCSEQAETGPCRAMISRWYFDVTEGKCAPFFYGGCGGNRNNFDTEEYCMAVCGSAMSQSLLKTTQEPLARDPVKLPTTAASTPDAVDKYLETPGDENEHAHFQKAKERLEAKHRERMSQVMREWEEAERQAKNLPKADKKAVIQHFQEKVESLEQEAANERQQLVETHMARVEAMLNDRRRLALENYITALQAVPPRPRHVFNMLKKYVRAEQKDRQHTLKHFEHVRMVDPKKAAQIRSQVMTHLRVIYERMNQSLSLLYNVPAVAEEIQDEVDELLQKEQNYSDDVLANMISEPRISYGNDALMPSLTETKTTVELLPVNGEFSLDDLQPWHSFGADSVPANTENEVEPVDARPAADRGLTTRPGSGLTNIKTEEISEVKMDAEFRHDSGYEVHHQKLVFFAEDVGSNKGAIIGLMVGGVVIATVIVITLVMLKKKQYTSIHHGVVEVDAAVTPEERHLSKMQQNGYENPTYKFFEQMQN
T1 sequence (Q13148 whole entry): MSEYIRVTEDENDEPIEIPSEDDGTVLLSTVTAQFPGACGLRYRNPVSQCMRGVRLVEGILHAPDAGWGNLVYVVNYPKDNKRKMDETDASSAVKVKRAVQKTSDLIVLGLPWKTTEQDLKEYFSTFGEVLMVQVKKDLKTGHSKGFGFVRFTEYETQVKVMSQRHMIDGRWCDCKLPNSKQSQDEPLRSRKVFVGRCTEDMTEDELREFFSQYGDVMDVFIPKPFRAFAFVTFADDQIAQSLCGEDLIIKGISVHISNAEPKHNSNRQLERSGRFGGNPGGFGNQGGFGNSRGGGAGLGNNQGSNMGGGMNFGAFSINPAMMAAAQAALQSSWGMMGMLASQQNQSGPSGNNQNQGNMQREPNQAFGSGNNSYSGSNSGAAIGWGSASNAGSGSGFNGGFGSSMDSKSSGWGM

| Binder | binding result (Tau) | binding result (transthyrethin) | binding result [1] | binding result [2] | binding result ((PR)15: H-C(PR)15-OH) | binding result ((GP)15: H-C(GP)15-OH) | binding result ((PA)15: H-C(PA)15-OH) | binding result ((GR)15: H-C(GR)15-OH) | EC50 (GA10: H-(GA)10HHHHHH-NH2) [nM] | EC50 (GA20: H-(GA)20HHHHHH-NH2) [nM] | EC50 [3] [nM] |
| --- | --- | --- | --- | --- | --- | --- | --- | --- | --- | --- | --- |
| B1 | no binding (tested: 20 nM) | no binding (tested: 20 nM) | no binding (tested: 20 nM) | no binding (tested: 20 nM) | no binding | no binding | no binding | no binding | 0.9 | 1.1 | 1.1 |
| B2 | no binding (tested: 20 nM) | no binding (tested: 20 nM) | no binding (tested: 20 nM) | no binding (tested: 20 nM) | no binding | no binding | no binding | no binding | 0.78 | 0.83 | 1.5 |

— patent US20200010567A1 (NEURIMMUNE, published 2020)
